Literature values as cited in paper PMC4319847.

Key:
[1] = molecular target: SV40 NLS NLS (Simian virus 40) (UniProt P03070)
[2] = molecular target: Myc NLS NLS (Homo sapiens) (UniProt P01106)
Sequence of Myc NLS NLS (Homo sapiens) (P01106 whole entry, looked up): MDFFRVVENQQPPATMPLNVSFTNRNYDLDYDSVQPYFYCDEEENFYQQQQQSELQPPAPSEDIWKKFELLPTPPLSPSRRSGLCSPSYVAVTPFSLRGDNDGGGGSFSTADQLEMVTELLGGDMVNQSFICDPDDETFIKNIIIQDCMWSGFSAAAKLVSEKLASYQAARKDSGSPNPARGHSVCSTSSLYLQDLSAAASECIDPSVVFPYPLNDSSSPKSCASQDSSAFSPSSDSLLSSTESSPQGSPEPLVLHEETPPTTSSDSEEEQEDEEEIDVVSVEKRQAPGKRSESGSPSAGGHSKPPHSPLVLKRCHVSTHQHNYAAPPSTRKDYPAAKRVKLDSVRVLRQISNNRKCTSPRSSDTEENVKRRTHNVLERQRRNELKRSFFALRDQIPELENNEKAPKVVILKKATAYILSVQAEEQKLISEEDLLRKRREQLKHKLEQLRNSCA

Sequence of yeast importin-α 89-530 (Q02821 89-530): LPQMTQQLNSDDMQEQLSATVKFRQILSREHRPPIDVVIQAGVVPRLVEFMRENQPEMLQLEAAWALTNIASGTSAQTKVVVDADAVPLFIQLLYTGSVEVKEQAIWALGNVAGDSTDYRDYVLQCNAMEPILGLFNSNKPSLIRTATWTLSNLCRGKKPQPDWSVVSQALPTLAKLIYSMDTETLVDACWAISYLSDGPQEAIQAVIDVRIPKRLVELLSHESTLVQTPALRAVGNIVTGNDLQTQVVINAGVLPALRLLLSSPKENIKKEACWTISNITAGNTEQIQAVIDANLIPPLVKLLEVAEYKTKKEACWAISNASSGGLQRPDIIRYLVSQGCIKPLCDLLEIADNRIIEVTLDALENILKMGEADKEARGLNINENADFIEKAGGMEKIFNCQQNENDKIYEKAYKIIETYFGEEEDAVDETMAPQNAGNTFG
Sequence of SV40 NLS NLS (Simian virus 40) (P03070 whole entry, looked up): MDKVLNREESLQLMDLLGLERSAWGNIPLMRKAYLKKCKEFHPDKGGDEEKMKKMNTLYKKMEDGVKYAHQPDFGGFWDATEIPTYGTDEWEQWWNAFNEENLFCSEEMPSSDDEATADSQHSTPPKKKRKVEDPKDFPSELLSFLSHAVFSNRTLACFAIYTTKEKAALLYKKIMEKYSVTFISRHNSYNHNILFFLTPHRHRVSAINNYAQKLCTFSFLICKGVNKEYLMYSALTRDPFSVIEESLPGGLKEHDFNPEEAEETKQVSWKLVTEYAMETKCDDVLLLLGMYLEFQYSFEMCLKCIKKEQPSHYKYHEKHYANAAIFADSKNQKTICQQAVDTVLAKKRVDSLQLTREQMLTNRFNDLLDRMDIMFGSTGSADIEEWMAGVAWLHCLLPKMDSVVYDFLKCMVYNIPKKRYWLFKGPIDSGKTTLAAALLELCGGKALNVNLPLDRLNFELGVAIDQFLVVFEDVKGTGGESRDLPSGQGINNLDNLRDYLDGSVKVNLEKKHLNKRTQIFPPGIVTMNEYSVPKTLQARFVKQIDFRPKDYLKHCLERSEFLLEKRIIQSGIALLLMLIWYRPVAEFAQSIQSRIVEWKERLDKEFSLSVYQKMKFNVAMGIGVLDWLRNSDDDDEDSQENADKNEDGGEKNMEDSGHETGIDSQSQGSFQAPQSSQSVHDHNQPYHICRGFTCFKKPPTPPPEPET

In the case of “yeast importin-α 89-530 (from UniProt Q02821)”, the Kd [1] is listed as 9 nM and the Kd [2] is listed as 6 nM.
